In publication PMC10377887, “Individual Contributions of Amido Acid Residues Tyr122, Ile168, and Asp173 to the Activity and Substrate Specificity of Human DNA Dioxygenase ABH2” one finds Kd data, which are given here for 2 molecules.

Common to all, as to experiment: EMSA; 0.5 mM αKG, 10 mM Mg2+, 2 mM ascorbate; EMSA: 50 mM Tris-HCl pH 8.0, 50 mM KCl, 10 mM MgCl2, 0.5 mM αKG, 2 mM Na ascorbate; 1.2 µM DNA, 0.4-12.8 µM protein; 10 min 37 °C then 5 min on ice; 10% native
Conditions in all cases: protein: recombinant; tags: N-terminal His6; label: 5'-FAM on strand 1; blunt
(Mobility shift assays separate free from complexed probe on a gel.)

One series has as its target T1, ABH2 D173A (human, UniProt Q6NS38 1-261, D173A).
T1 sequence: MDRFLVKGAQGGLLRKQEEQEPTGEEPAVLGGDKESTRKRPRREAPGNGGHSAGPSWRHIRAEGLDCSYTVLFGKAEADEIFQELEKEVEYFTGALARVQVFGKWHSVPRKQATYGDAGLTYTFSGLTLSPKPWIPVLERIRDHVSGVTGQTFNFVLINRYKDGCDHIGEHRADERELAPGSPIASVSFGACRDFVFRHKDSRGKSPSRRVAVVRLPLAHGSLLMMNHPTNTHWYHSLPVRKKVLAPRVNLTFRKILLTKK

The target of a further series is T2, ABH2 Y122A (human, UniProt Q6NS38 1-261, Y122A).
T2 sequence: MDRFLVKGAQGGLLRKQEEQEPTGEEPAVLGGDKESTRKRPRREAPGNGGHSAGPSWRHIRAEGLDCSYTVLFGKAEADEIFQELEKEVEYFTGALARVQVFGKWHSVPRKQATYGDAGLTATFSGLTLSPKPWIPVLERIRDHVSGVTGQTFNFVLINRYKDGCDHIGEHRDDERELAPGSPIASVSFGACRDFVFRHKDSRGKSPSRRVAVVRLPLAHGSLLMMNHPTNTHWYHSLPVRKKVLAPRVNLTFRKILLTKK

The next series concerns the target T3, ABH2 I168A (human, UniProt Q6NS38 1-261, I168A).
T3 sequence: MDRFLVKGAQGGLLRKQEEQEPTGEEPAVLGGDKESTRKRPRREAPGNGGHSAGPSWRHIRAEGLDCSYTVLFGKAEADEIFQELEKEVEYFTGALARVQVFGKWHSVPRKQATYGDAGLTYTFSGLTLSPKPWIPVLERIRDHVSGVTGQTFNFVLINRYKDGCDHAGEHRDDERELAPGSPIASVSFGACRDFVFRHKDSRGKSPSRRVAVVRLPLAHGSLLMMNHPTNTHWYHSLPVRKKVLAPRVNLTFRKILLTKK

B1: m3C (dsDNA)
DNA 1: AGTTCAATGATCTTCAT
DNA 2: ATGAAGATCATTGAACT
modifications: N3-methylcytosine at position 12 of strand 1
Broadly, the Kd is a measure of binding affinity in units of concentration. Take B1: the Kd with ABH2 D173A came to 3090 ± 70 nM; in the series with ABH2 Y122A it was 2490 ± 60 nM; in the series with ABH2 I168A, 4.1 ± 0.1 µM.

B2: m1A (dsDNA)
DNA 1: AGTTCAATGATCTTCAT
DNA 2: ATGAAGATCATTGAACT
modifications: N1-methyladenine at position 10 of strand 1
As to B2, the Kd with ABH2 D173A stood at 2100 ± 90 nM; in the series with ABH2 Y122A, 2110 ± 80 nM; with ABH2 I168A, 2.7 ± 0.4 µM.
